Reference: patent publication US20110091994A1, “Methods for Screening Compounds for Treating and/or Preventing an Hepatitis C Virus Infection” (priority 2008, published 2011)
Where two headings read alike, the source gives them in different places.

B1: ZNF410 (protein, UniProt Q86VK4 1-478, looked up)
Zinc finger protein 410: MLSDELESKPELLVQFVQNTSIPLGQGLVESEAKDITCLSLLPVTEASECSRLMLPDDTTNHSNSSKEVPSSAVLRSLRVNVGPDGEETRAQTVQKSPEFLSTSESSSLLQDLQPSDSTSFILLNLTRAGLGSSAEHLVFVQDEAEDSGNDFLSSESTDSSIPWFLRVQELAHDSLIAATRAQLAKNAKTSSNGENVHLGSGDGQSKDSGPLPQVEKKLKCTVEGCDRTFVWPAHFKYHLKTHRNDRSFICPAEGCGKSFYVLQRLKVHMRTHNGEKPFMCHESGCGKQFTTAGNLKNHRRIHTGEKPFLCEAQGCGRSFAEYSSLRKHLVVHSGEKPHQCQVCGKTFSQSGSRNVHMRKHHLQLGAAGSQEQEQTAEPLMGSSLLEEASVPSKNLVSMNSQPSLGGESLNLPNTNSILGVDDEVLAEGSPRSLSSVPDVTHHLVTMQSGRQSYEVSVLTAVNPQELLNQGDLTERRT
B2: ELAC2 (protein, UniProt Q9BQ52 17-826, looked up)
Zinc phosphodiesterase ELAC …: SQGRTISQAPARRERPRKDPLRHLRTREKRGPSGCSGGPNTVYLQVVAAGSRDSGAALYVFSEFNRYLFNCGEGVQRLMQEHKLKVARLDNIFLTRMHWSNVGGLSGMILTLKETGLPKCVLSGPPQLEKYLEAIKIFSGPLKGIELAVRPHSAPEYEDETMTVYQIPIHSEQRRGKHQPWQSPERPLSRLSPERSSDSESNENEPHLPHGVSQRRGVRDSSLVVAFICKLHLKRGNFLVLKAKEMGLPVGTAAIAPIIAAVKDGKSITHEGREILAEELCTPPDPGAAFVVVECPDESFIQPICENATFQRYQGKADAPVALVVHMAPASVLVDSRYQQWMERFGPDTQHLVLNENCASVHNLRSHKIQTQLNLIHPDIFPLLTSFRCKKEGPTLSVPMVQGECLLKYQLRPRREWQRDAIITCNPEEFIVEALQLPNFQQSVQEYRRSAQDGPAPAEKRSQYPEIIFLGTGSAIPMKIRNVSATLVNISPDTSLLLDCGEGTFGQLCRHYGDQVDRVLGTLAAVFVSHLHADHHTGLPSILLQRERALASLGKPLHPLLVVAPNQLKAWLQQYHNQCQEVLHHISMIPAKCLQEGAEISSPAVERLISSLLRTCDLEEFQTCLVRHCKHAFGCALVHTSGWKVVYSGDTMPCEALVRMGKDATLLIHEATLEDGLEEEAVEKTHSTTSQAISVGMRMNAEFIMLNHFSQRYAKVPLFSPNFSEKVGVAFDHMKVCFGDFPTMPKLIPPLKALFAGDIEEMEERREKRELRQVRAALLSRELAGGLEDGEPQQKRAHTEEPQAKKVRAQ
B3: ZHX3 (protein, UniProt Q9H4I2 1-956, looked up)
Zinc fingers and homeoboxes …: MASKRKSTTPCMIPVKTVVLQDASMEAQPAETLPEGPQQDLPPEASAASSEAAQNPSSTDGSTLANGHRSTLDGYLYSCKYCDFRSHDMTQFVGHMNSEHTDFNKDPTFVCSGCSFLAKTPEGLSLHNATCHSGEASFVWNVAKPDNHVVVEQSIPESTSTPDLAGEPSAEGADGQAEIIITKTPIMKIMKGKAEAKKIHTLKENVPSQPVGEALPKLSTGEMEVREGDHSFINGAVPVSQASASSAKNPHAANGPLIGTVPVLPAGIAQFLSLQQQPPVHAQHHVHQPLPTAKALPKVMIPLSSIPTYNAAMDSNSFLKNSFHKFPYPTKAELCYLTVVTKYPEEQLKIWFTAQRLKQGISWSPEEIEDARKKMFNTVIQSVPQPTITVLNTPLVASAGNVQHLIQAALPGHVVGQPEGTGGGLLVTQPLMANGLQATSSPLPLTVTSVPKQPGVAPINTVCSNTTSAVKVVNAAQSLLTACPSITSQAFLDASIYKNKKSHEQLSALKGSFCRNQFPGQSEVEHLTKVTGLSTREVRKWFSDRRYHCRNLKGSRAMIPGDHSSIIIDSVPEVSFSPSSKVPEVTCIPTTATLATHPSAKRQSWHQTPDFTPTKYKERAPEQLRALESSFAQNPLPLDEELDRLRSETKMTRREIDSWFSERRKKVNAEETKKAEENASQEEEEAAEDEGGEEDLASELRVSGENGSLEMPSSHILAERKVSPIKINLKNLRVTEANGRNEIPGLGACDPEDDESNKLAEQLPGKVSCKKTAQQRHLLRQLFVQTQWPSNQDYDSIMAQTGLPRPEVVRWFGDSRYALKNGQLKWYEDYKRGNFPPGLLVIAPGNRELLQDYYMTHKMLYEEDLQNLCDKTQMSSQQVKQWFAEKMGEETRAVADTGSEDQGPGTGELTAVHKGMGDTYSEVSENSESWEPRVPEASSEPFDTSSPQAGRQLETD
B4: ZZZ3 (protein, UniProt Q8IYH5 1-903, looked up)
ZZ-type zinc …: MAASRSTRVTRSTVGLNGLDESFCGRTLRNRSIAHPEEISSNSQVRSRSPKKRPEPVPIQKGNNNGRTTDLKQQSTRESWVSPRKRGLSSSEKDNIERQAIENCERRQTEPVSPVLKRIKRCLRSEAPNSSEEDSPIKSDKESVEQRSTVVDNDADFQGTKRACRCLILDDCEKREIKKVNVSEEGPLNSAVVEEITGYLAVNGVDDSDSAVINCDDCQPDGNTKQNSIGSYVLQEKSVAENGDTDTQTSMFLDSRKEDSYIDHKVPCTDSQVQVKLEDHKIVTACLPVEHVNQLTTEPATGPFSETQSSLRDSEEEVDVVGDSSASKEQCKENTNNELDTSLESMPASGEPEPSPVLDCVSAQMMSLSEPQEHRYTLRTSPRRAAPTRGSPTKNSSPYRENGQFEENNLSPNETNATVSDNVSQSPTNPGEISQNEKGICCDSQNNGSEGVSKPPSEARLNIGHLPSAKESASQHITEEEDDDPDVYYFESDHVALKHNKDYQRLLQTIAVLEAQRSQAVQDLESLGRHQREALKNPIGFVEKLQKKADIGLPYPQRVVQLPEIVWDQYTHSLGNFEREFKNRKRHTRRVKLVFDKVGLPARPKSPLDPKKDGESLSYSMLPLSDGPEGSSSRPQMIRGRLCDDTKPETFNQLWTVEEQKKLEQLLIKYPPEEVESRRWQKIADELGNRTAKQVASRVQKYFIKLTKAGIPVPGRTPNLYIYSKKSSTSRRQHPLNKHLFKPSTFMTSHEPPVYMDEDDDRSCFHSHMNTAVEDASDDESIPIMYRNLPEYKELLQFKKLKKQKLQQMQAESGFVQHVGFKCDNCGIEPIQGVRWHCQDCPPEMSLDFCDSCSDCLHETDIHKEDHQLEPIYRSETFLDRDYCVSQGTSYNYLDPNYFPANR
B5: ZNF281 (protein, UniProt Q9Y2X9 1-895, looked up)
Zinc finger protein 281: MKIGSGFLSGGGGTGSSGGSGSGGGGSGGGGGGGSSGRRAEMEPTFPQGMVMFNHRLPPVTSFTRPAGSAAPPPQCVLSSSTSAAPAAEPPPPPAPDMTFKKEPAASAAAFPSQRTSWGFLQSLVSIKQEKPADPEEQQSHHHHHHHHYGGLFAGAEERSPGLGGGEGGSHGVIQDLSILHQHVQQQPAQHHRDVLLSSSSRTDDHHGTEEPKQDTNVKKAKRPKPESQGIKAKRKPSASSKPSLVGDGEGAILSPSQKPHICDHCSAAFRSSYHLRRHVLIHTGERPFQCSQCSMGFIQKYLLQRHEKIHSREKPFGCDQCSMKFIQKYHMERHKRTHSGEKPYKCDTCQQYFSRTDRLLKHRRTCGEVIVKGATSAEPGSSNHTNMGNLAVLSQGNTSSSRRKTKSKSIAIENKEQKTGKTNESQISNNINMQSYSVEMPTVSSSGGIIGTGIDELQKRVPKLIFKKGSRKNTDKNYLNFVSPLPDIVGQKSLSGKPSGSLGIVSNNSVETIGLLQSTSGKQGQISSNYDDAMQFSKKRRYLPTASSNSAFSINVGHMVSQQSVIQSAGVSVLDNEAPLSLIDSSALNAEIKSCHDKSGIPDEVLQSILDQYSNKSESQKEDPFNIAEPRVDLHTSGEHSELVQEENLSPGTQTPSNDKASMLQEYSKYLQQAFEKSTNASFTLGHGFQFVSLSSPLHNHTLFPEKQIYTTSPLECGFGQSVTSVLPSSLPKPPFGMLFGSQPGLYLSALDATHQQLTPSQELDDLIDSQKNLETSSAFQSSSQKLTSQKEQKNLESSTGFQIPSQELASQIDPQKDIEPRTTYQIENFAQAFGSQFKSGSRVPMTFITNSNGEVDHRVRTSVSDFSGYTNMMSDVSEPCSTRVKTPTSQSYR

Experiments:
[1] = target: T1, HCV ORFs (Gal4-DB fusions) (Hepatitis C virus genotype 1b, UniProt Q9WMX2); type: binding, HCV genotype 1b, isolate con1; conditions: human protein as prey
T1 construct: expressed in transfected cells; host or cells: Saccharomyces cerevisiae MAV203 (IMAP1) / AH109 (IMAP2)

[2] = system: HCV ORFs (Gal4-DB fusions); type: binding, HCV genotype 1b, isolate con1; conditions: human protein listed by gene symbol; the value names the HCV protein it interacts with
HCV proteins = target: T2, HCV proteins (Hepatitis C virus genotype 1b, UniProt Q9WMX2); assay: Validation by Y2H pairwise matrices; type: binding;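 also: yeast two-hybrid pairwise tests of interactions first found in Y2H screens of HCV bait proteins against human cDNA libraries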
T2 construct: expressed in transfected cells

[3] = validation of interaction with HCV protein NS3
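For IMAP Y2H IMAP1 (number of IST) in this document: yeast two-hybrid screens using HCV genotype 1b proteins fused to Gal4-DB as baits against prey cDNA libraries from human spleen and foetal brain, IMAP1 via transformation and IMAP2 via mating.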
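For Interaction with viral protein in this document: yeast two-hybrid screens using HCV genotype 1b proteins fused to Gal4-DB as baits against prey cDNA libraries from human spleen and foetal brain, IMAP1 via transformation and IMAP2 via mating.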

Molecule	IMAP Y2H IMAP1 (number of IST) ([1]; HCV protein NS3 as bait)	Interaction with viral protein [2]	Y2H matrices (HCV proteins; [3])	IMAP Y2H IMAP1 (number of IST) ([1]; HCV protein NS4A as bait)	Y2H matrices (HCV proteins; validation of interaction with HCV protein NS4A)
B1	1	NS3	+		
B2		NS4A		1	+
B3	4	NS3	+		
B4	1	NS3	+		
B5	1	NS3	+		
